Biological target: BG505 SOSIP.664 trimer, His-tagged (HIV-1 isolate BG505)
Assay: SPR

ACS202 Fab
stoichiometry N (mAb per trimer): 3
